Each block holds one binder with its values, some of them ahead of it.
B3: human β2-appendage (700–937) used for ITC (domain or fragment)
chain: IGMAPGGYVAPKAVWLPAVKAKGLEISGTFTHRQGHIYMEMNFTNKALQHMTDFAIQFNKNSFGVIPSTPLAIHTPLMPNQSIDVSLPLNTLGPVMKMEPLNNLQVAVKNNIDVFYFSCLIPLNVLFVEDGKMERQVFLATWKDIPNENELQFQIKECHLNADTVSSKLQNNNVYTIAKRNVEGQDMLYQSLKLTNGIWILAELRIQPGNPNYTLSLKCRAPEVSQYIYQVYDSILKN
B4: human β2-appendage (700–937) R879A used for ITC (domain or fragment)
chain: IGMAPGGYVAPKAVWLPAVKAKGLEISGTFTHRQGHIYMEMNFTNKALQHMTDFAIQFNKNSFGVIPSTPLAIHTPLMPNQSIDVSLPLNTLGPVMKMEPLNNLQVAVKNNIDVFYFSCLIPLNVLFVEDGKMERQVFLATWKDIPNENELQFQIKECHLNADTVSSKLQNNNVYTIAKANVEGQDMLYQSLKLTNGIWILAELRIQPGNPNYTLSLKCRAPEVSQYIYQVYDSILKN
B5: human β2-appendage (700–937), top site mutant used for ITC (domain or fragment)
chain: IGMAPGGYVAPKAVWLPAVKAKGLEISGTFTHRQGHIYMEMNFTNKALQHMTDFAIQFNKNSFGVIPSTPLAIHTPLMPNQSIDVSLPLNTLGPVMKMEPLNNLQVAVKNNIDVFYFSCLIPLNVLFVEDGKMERQVFLATWKDIPNENELQFQIKECHLNADTVSSKLQNNNVYTIAKRNVEGQDMLVQSLKLTNGIWILAELRIQPGNPNYTLSLKCRAPEVSQYIYQVYDSILKN

Legend:
Test in all cases: ITC
[1] = biological target: B3
[2] = biological target: B5
[3] = biological target: AP2 α-appendage appendage (Mus musculus, UniProt P17427)
Sequence of AP2 α-appendage appendage (P17427 701-938): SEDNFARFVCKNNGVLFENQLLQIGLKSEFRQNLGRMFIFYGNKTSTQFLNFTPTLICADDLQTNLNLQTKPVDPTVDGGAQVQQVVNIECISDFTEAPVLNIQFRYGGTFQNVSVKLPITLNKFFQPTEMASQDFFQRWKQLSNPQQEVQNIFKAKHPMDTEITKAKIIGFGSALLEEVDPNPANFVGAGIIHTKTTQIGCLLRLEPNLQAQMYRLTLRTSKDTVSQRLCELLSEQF

Epsin P4 = biological target: Epsin P4
Eps15 P-long peptide = Eps15 P-long peptide (UniProt P42566)
ARH peptide = ARH peptide (UniProt Q5SW96)
Epsin P1 = biological target: Epsin P1
epsinR peptide = epsinR peptide (UniProt Q14677)
[4] = biological target: B4
[5] = biological target: T1, human β2-appendage (700–937), side site mutant used for ITC (human, UniProt P63010 700-937)
T1 chain: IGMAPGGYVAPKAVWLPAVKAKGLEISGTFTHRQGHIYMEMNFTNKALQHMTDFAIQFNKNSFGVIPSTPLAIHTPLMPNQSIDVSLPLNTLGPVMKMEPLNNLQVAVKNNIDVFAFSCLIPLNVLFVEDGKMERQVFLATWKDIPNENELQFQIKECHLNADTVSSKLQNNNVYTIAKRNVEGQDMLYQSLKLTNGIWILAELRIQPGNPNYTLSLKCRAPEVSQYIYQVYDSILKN

B1: 6× His human Eps15-MD (530–791) (domain or fragment)
chain: STSSSETANLNEHVEGQSNLESEPIHQESPARSSPELLPSGVTDENEVTTAVTEKVCSELDNNRHSKEEDPFNVDSSSLTGPVADTNLDFFQSDPFVGSDPFKDDPFGKIDPFGGDPFKGSDPFASDCFFRQSTDPFATSSTDPFSAANNSSITSVETLKHNDPFAPGGTVVAASDSATDPFASVFGNESFGGGFADFSTLSKVNNEDPFRSATSSSVSNVVITKNVFEETSVKSEDEPPALPPKIGTPTRPCPLPPGKRSI
Kd [1]: 18 µM
Kd [2]: 11 µM

Binder: SFGDGFADFSTL [Eps15 P-short peptide]
Kd [2]: 59 µM

Binder: B3
Kd (Epsin P4): 160 µM
Kd (Eps15 P-long peptide): 12 µM
Kd (ARH peptide): 4.7 µM
Kd (Epsin P1): 131 µM

Binder: B4
Kd (ARH peptide): 5.5 µM

Binder: B5
Kd (epsinR peptide): 77 µM

Second part, the binder after the results:

Kd [3]: 2.5 µM
Binder: SFFEDNFVPEIS [amphiphysin DNF 12mer peptide]

Kd [1]: 35 µM
B2: Epsin1-MD (protein)
chain: TGGKEESSLMDLADVFTTPAPPQASDPWGGPASVPTAVPVAAAASDPWGAPAVPPAADPWGGAAPTPASGDPWRPAAPTGPSVDPWGGTPAPAAGEGPTSDPWGSADGGAPVSGPPSSDPWAPAPAFSDPWGGSPAKPSSNGTAVGGFDTEPD

Kd [4]: 0.17 µM
Kd [5]: 1.7 µM
Binder: DDDIVFEDFARQRLKGMKDD [β-arrestin P-long peptide]
